The record followed here is patent US20210033615A1 (DEUTSCHES KREBSFORSCHUNGSZENTRUM STIFTUNG DOES OFFENTLICHEN …, published 2021).

Experiment [1] has as its target T1, 6-phosphofructo-2-kinase/fructose-2,6-biphosphatase 4 (PFKFB4) (human, UniProt Q16877 1-469).
T1 construct: It was expressed inside cells (GSCs, HEK293) or in yeast two-hybrid; any tags in the coIP and Y2H are not described; also called untagged PFKFB4
Briefly: NanoBiT competition in HEK293 cells.

The target in experiment [2] is T2, PFKFB4 tagged at the C-terminal with the Large BiT (human, UniProt Q16877 1-469).
T2 construct: Expressed in HEK293 cells for the NanoBiT assay; also called C-ter[LgBiT]PFKFB4; tagged PFKFB4; not shown: Large BiT (LgBiT) tag and any linker from the pLVX1.1-C[TK/LgBiT]; NanoBiT vector
T2 sequence (Q16877 whole entry): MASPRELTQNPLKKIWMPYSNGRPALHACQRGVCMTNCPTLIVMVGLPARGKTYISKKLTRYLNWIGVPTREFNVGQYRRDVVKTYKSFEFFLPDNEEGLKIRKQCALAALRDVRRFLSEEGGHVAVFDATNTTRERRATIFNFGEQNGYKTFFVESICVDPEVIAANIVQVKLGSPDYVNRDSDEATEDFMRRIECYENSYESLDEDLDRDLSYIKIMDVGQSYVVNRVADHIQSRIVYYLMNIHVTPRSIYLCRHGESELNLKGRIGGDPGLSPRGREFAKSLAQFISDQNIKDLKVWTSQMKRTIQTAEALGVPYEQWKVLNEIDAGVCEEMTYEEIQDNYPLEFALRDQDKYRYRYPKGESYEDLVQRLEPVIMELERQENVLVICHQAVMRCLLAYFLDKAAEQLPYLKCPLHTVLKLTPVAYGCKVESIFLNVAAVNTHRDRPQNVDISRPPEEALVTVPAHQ
As to the kind of experiment: NanoBiT luminescence complementation in HEK293 cells; counted positive if the signal is at least 10-fold that of the negative control. An excerpt:
The NanoBiT® assay from Promega is widely used to investigate protein-protein interactions. The NanoBiT Assay is described in detail in Dixon et al., (2016) “NanoLuc Complementation Reporter Optimized for Accurate Measurement of Protein Interactions in Cells” (ACS Chem. Biol., 11, 400-408; which is incorporated herein by reference in its entirety). The inventors adapted this method to develop a cellular screening assay in order to investigate the interaction of PFKFB4 with FBXO28. In that respect, both genes were cloned into pLVX vectors containing the four NanoBiT® versions (pLVX1.1-N[TK/LgBiT], pLVX2.1-N[TK/SmBiT], pLVX1.1-C[TK/LgBiT] and pLVX2.1-C[TK/SmBiT]), allowing the small and large BiT tags to be at the N- or C-terminal of both proteins of interest. As negative control, a vector containing a HaloTag protein cloned to the small BiT was used in combination with the large BiT cloned to either FBXO28 or PFKFB4.
All vectors were transfected in HEK293 cells and the combinations were tested as depicted in FIG. 7A. The luminescent signal was detected with the Nano-Glo® Luciferase Assay System from Promega. The interaction was considered positive if the signal was at least 10-fold of the respective negative control. […]

T1 sequence (Q16877 whole entry): as above

B1: FBXO28 tagged at the N-terminal with the small BiT (other)
chain: MAAAAEERMAEEGGGGQGDGGSSLASGSTQRQPPPPAPQHPQPGSQALPAPALAPDQLPQNNTLVALPIVAIENILSFMSYDEISQLRLVCKRMDLVCQRMLNQGFLKVERYHNLCQKQVKAQLPRRESERRNHSLARHADILAAVETRLSLLNMTFMKYVDSNLCCFIPGKVIDEIYRVLRYVNSTRAPQRAHEVLQELRDISSMAMEYFDEKIVPILKRKLPGSDVSGRLMGSPPVPGPSAALTTMQLFSKQNPSRQEVTKLQQQVKTNGAGVTVLRREISELRTKVQEQQKQLQDQDQKLLEQTQIIGEQNARLAELERKLREVMESAVGNSSGSGQNEESPRKRKKATEAIDSLRKSKRLRNRK
notes: Expressed in HEK293 cells for the NanoBiT assay; also called N-ter[SmBiT]FBXO28; tagged FBXO28; not shown: Small BiT (SmBiT) tag and any linker from the pLVX2.1-N[TK/SmBiT]; NanoBiT vector
Take B1: the binding result in experiment [1] and in experiment [2] was “binds” throughout.
